# Data published in publication PMC9482650, “Quantitative fragmentomics allow affinity mapping of interactomes” (Nature Communications, 2022).
# T1: APBA2_1, Q99767
# T1 sequence (Q99767 563-664, limits assumed, looked up): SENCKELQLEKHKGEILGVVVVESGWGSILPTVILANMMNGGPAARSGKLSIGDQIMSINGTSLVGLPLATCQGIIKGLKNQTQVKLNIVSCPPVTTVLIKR
# T2: ARHGEF11, O15085
# T2 sequence (O15085 42-136, limits assumed, looked up): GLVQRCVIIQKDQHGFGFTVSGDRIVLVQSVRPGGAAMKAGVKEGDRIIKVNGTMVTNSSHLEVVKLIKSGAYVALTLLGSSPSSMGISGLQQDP
# T3: CARD11, Q9BXL7
# T3 sequence (Q9BXL7 662-765, limits assumed, looked up): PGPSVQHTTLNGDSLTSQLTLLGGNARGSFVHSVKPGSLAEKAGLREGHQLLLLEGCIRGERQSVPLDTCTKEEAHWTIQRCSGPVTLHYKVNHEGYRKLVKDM
# T4: GRIP1_2, Q9Y3R0
# T4 sequence (Q9Y3R0 145-248, limits assumed, looked up): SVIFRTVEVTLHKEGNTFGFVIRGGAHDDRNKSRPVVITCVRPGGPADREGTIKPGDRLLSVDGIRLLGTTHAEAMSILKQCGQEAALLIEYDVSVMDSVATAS
# T5: GRIP1_5, Q9Y3R0
# T5 sequence (Q9Y3R0 568-668, limits assumed, looked up): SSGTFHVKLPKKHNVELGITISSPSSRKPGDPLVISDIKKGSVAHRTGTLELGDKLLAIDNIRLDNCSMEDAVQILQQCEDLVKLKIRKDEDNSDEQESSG
# T6: HTRA4, P83105
# T6 sequence (P83105 378-476, limits assumed, looked up): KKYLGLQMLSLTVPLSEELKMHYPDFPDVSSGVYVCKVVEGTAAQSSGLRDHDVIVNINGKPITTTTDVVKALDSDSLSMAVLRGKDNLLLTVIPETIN
# T7: LNX2_2, Q8N448
# T7 sequence (Q8N448 334-432, limits assumed, looked up): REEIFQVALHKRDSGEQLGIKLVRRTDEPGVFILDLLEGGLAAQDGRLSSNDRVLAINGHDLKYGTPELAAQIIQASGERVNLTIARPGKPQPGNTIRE
# T8: LRRC7, Q96NW7
# T8 sequence (Q96NW7 1440-1537, limits assumed, looked up): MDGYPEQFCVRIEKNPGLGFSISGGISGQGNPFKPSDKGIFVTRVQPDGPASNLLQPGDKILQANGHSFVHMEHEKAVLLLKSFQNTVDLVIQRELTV
# T9: MPDZ_10, O75970
# T9 sequence (O75970 1624-1722, limits assumed, looked up): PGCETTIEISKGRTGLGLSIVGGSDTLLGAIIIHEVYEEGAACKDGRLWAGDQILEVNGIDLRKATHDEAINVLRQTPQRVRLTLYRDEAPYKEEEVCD
# T10: NHERF3_1, Q5T2W1
# T10 sequence (Q5T2W1 4-100, limits assumed, looked up): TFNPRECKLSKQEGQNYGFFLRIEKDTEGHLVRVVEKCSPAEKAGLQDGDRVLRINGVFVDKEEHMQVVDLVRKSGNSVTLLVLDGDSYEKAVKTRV
# T11: PCLO, Q9Y6V0
# T11 sequence (Q9Y6V0 4491-4600, limits assumed, looked up): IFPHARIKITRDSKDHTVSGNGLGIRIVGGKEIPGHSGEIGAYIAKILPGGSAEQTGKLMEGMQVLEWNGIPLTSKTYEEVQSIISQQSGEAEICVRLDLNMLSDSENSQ
# T12: SHANK1, Q9Y566
# T12 sequence (Q9Y566 658-767, limits assumed, looked up): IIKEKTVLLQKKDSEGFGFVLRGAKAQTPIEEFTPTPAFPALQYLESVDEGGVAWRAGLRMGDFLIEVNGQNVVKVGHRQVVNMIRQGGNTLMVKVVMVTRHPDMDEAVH
# B1: KCNT2, Q6UVM3 (peptide)
# chain: GQDSREETQL
# B2: ARHGAP17, Q68EM7 (peptide)
# chain: IDNDTESTAL
# Molecular target: T1, APBA2_1, Q99767
# Test: holdup assay
# Parameters: key: below the threshold = too weak to quantify, mostly under pKd 3.1 to 4
# Conditions: plain residues with an end cap or a label only (N-terminal biotin on a linker: ttds)
row,pKd,Binder
1,below the threshold,B1
2,below the threshold,B2

# Molecular target: T2, ARHGEF11, O15085
# Test: holdup assay
# Parameters: key: below the threshold = too weak to quantify, mostly under pKd 3.1 to 4
# Conditions: plain residues with an end cap or a label only (N-terminal biotin on a linker: ttds)
row,pKd,Binder
1,4.44,B1
2,4.79,B2

# Molecular target: ARHGEF12, Q9NZN5-2
# Test: holdup assay
# Parameters: key: below the threshold = too weak to quantify, mostly under pKd 3.1 to 4
# Conditions: plain residues with an end cap or a label only (N-terminal biotin on a linker: ttds)
# Chain of ARHGEF12, Q9NZN5-2 (Q9NZN5 other isoform, or with tags, fused parts or gaps): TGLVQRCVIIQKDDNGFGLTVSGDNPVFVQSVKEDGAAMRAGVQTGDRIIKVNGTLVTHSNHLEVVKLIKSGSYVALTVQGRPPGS
row,pKd,Binder
1,4.67,B1
2,4.77,B2

# Molecular target: T3, CARD11, Q9BXL7
# Test: holdup assay
# Parameters: key: below the threshold = too weak to quantify, mostly under pKd 3.1 to 4
# Conditions: plain residues with an end cap or a label only (N-terminal biotin on a linker: ttds)
row,pKd,Binder
1,below the threshold,B1
2,below the threshold,B2

# Molecular target: CASK, O14936
# Test: holdup assay
# Parameters: key: below the threshold = too weak to quantify, mostly under pKd 3.1 to 4
# Conditions: plain residues with an end cap or a label only (N-terminal biotin on a linker: ttds)
# Chain of CASK, O14936 (O14936 487-570): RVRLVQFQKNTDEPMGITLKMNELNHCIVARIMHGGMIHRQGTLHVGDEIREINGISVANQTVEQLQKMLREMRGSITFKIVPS
row,pKd,Binder
1,below the threshold,B1
2,below the threshold,B2

# Molecular target: GRASP, Q7Z6J2
# Test: holdup assay
# Parameters: key: below the threshold = too weak to quantify, mostly under pKd 3.1 to 4
# Conditions: plain residues with an end cap or a label only (N-terminal biotin on a linker: ttds)
# Chain of GRASP, Q7Z6J2 (Q7Z6J2 96-193): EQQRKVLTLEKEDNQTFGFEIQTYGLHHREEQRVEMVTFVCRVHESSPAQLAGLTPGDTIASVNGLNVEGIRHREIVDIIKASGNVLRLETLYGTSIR
row,pKd,Binder
1,below the threshold,B1
2,4.77,B2

# Molecular target: GRID2IP_1, A4D2P6
# Test: holdup assay
# Parameters: key: below the threshold = too weak to quantify, mostly under pKd 3.1 to 4
# Conditions: plain residues with an end cap or a label only (N-terminal biotin on a linker: ttds)
# Chain of GRID2IP_1, A4D2P6 (A4D2P6 1-87): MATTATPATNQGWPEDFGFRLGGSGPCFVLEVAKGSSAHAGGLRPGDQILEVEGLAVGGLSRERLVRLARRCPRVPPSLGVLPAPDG
row,pKd,Binder
1,below the threshold,B1
2,below the threshold,B2

# Molecular target: GRID2IP_2, A4D2P6
# Test: holdup assay
# Parameters: key: below the threshold = too weak to quantify, mostly under pKd 3.1 to 4
# Conditions: plain residues with an end cap or a label only (N-terminal biotin on a linker: ttds)
# Chain of GRID2IP_2, A4D2P6 (A4D2P6 272-370): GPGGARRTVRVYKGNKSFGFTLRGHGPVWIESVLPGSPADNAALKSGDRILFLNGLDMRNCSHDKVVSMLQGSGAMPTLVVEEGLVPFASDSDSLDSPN
row,pKd,Binder
1,4.52,B1
2,4.87,B2

# Molecular target: T4, GRIP1_2, Q9Y3R0
# Test: holdup assay
# Parameters: key: below the threshold = too weak to quantify, mostly under pKd 3.1 to 4
# Conditions: plain residues with an end cap or a label only (N-terminal biotin on a linker: ttds)
row,pKd,Binder
1,below the threshold,B1
2,below the threshold,B2

# Molecular target: T5, GRIP1_5, Q9Y3R0
# Test: holdup assay
# Parameters: key: below the threshold = too weak to quantify, mostly under pKd 3.1 to 4
# Conditions: plain residues with an end cap or a label only (N-terminal biotin on a linker: ttds)
row,pKd,Binder
1,below the threshold,B1
2,below the threshold,B2

# Molecular target: GRIP2_3, Q9C0E4
# Test: holdup assay
# Parameters: key: below the threshold = too weak to quantify, mostly under pKd 3.1 to 4
# Conditions: plain residues with an end cap or a label only (N-terminal biotin on a linker: ttds)
# Chain of GRIP2_3, Q9C0E4 (Q9C0E4 238-339): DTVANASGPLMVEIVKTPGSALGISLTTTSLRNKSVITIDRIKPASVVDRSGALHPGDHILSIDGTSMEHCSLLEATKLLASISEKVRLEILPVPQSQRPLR
row,pKd,Binder
1,below the threshold,B1
2,below the threshold,B2

# Molecular target: T6, HTRA4, P83105
# Test: holdup assay
# Parameters: key: below the threshold = too weak to quantify, mostly under pKd 3.1 to 4
# Conditions: plain residues with an end cap or a label only (N-terminal biotin on a linker: ttds)
row,pKd,Binder
1,below the threshold,B1
2,below the threshold,B2

# Molecular target: Inadl_5, Q8NI35
# Test: holdup assay
# Parameters: key: below the threshold = too weak to quantify, mostly under pKd 3.1 to 4
# Conditions: plain residues with an end cap or a label only (N-terminal biotin on a linker: ttds)
# Chain of Inadl_5, Q8NI35 (Q8NI35 673-780): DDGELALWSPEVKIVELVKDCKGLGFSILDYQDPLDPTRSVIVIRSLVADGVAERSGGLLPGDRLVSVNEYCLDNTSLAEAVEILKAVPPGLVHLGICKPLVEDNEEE
row,pKd,Binder
1,below the threshold,B1
2,below the threshold,B2

# Molecular target: Inadl_8, Q8NI35
# Test: holdup assay
# Parameters: key: below the threshold = too weak to quantify, mostly under pKd 3.1 to 4
# Conditions: plain residues with an end cap or a label only (N-terminal biotin on a linker: ttds)
# Chain of Inadl_8, Q8NI35 (Q8NI35 1425-1530): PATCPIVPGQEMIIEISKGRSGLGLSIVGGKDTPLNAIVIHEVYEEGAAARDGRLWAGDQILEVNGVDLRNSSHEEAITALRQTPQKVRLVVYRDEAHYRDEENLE
row,pKd,Binder
1,below the threshold,B1
2,below the threshold,B2

# Molecular target: LDB3, O75112
# Test: holdup assay
# Parameters: key: below the threshold = too weak to quantify, mostly under pKd 3.1 to 4
# Conditions: plain residues with an end cap or a label only (N-terminal biotin on a linker: ttds)
# Chain of LDB3, O75112 (O75112 1-94): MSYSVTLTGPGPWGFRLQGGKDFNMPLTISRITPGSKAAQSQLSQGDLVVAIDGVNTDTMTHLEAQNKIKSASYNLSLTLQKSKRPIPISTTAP
row,pKd,Binder
1,below the threshold,B1
2,below the threshold,B2

# Molecular target: T7, LNX2_2, Q8N448
# Test: holdup assay
# Parameters: key: below the threshold = too weak to quantify, mostly under pKd 3.1 to 4
# Conditions: plain residues with an end cap or a label only (N-terminal biotin on a linker: ttds)
row,pKd,Binder
1,below the threshold,B1
2,below the threshold,B2

# Molecular target: T8, LRRC7, Q96NW7
# Test: holdup assay
# Parameters: key: below the threshold = too weak to quantify, mostly under pKd 3.1 to 4
# Conditions: plain residues with an end cap or a label only (N-terminal biotin on a linker: ttds)
row,pKd,Binder
1,below the threshold,B1
2,below the threshold,B2

# Molecular target: MAGI1_2, Q96QZ7
# Test: holdup assay
# Parameters: key: below the threshold = too weak to quantify, mostly under pKd 3.1 to 4
# Conditions: plain residues with an end cap or a label only (N-terminal biotin on a linker: ttds)
# Chain of MAGI1_2, Q96QZ7 (Q96QZ7 456-580): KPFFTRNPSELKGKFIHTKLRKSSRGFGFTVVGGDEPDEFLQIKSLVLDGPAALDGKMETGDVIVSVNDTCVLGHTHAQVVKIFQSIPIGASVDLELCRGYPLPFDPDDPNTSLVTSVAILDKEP
row,pKd,Binder
1,4.5,B1
2,below the threshold,B2

# Molecular target: MAGI2_4, Q86UL8
# Test: holdup assay
# Parameters: key: below the threshold = too weak to quantify, mostly under pKd 3.1 to 4
# Conditions: plain residues with an end cap or a label only (N-terminal biotin on a linker: ttds)
# Chain of MAGI2_4, Q86UL8 (Q86UL8 772-865): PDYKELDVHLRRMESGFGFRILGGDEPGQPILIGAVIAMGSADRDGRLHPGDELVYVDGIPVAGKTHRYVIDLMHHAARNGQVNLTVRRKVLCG
row,pKd,Binder
1,below the threshold,B1
2,below the threshold,B2

# Molecular target: T9, MPDZ_10, O75970
# Test: holdup assay
# Parameters: key: below the threshold = too weak to quantify, mostly under pKd 3.1 to 4
# Conditions: plain residues with an end cap or a label only (N-terminal biotin on a linker: ttds)
row,pKd,Binder
1,below the threshold,B1
2,below the threshold,B2

# Molecular target: T10, NHERF3_1, Q5T2W1
# Test: holdup assay
# Parameters: key: below the threshold = too weak to quantify, mostly under pKd 3.1 to 4
# Conditions: plain residues with an end cap or a label only (N-terminal biotin on a linker: ttds)
row,pKd,Binder
1,5.47,B1
2,5.25,B2

# Molecular target: NHERF4_2, Q86UT5
# Test: holdup assay
# Parameters: key: below the threshold = too weak to quantify, mostly under pKd 3.1 to 4
# Conditions: plain residues with an end cap or a label only (N-terminal biotin on a linker: ttds)
# Chain of NHERF4_2, Q86UT5 (Q86UT5 220-308): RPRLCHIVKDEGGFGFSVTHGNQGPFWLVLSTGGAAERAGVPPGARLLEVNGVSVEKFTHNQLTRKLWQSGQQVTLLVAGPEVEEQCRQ
row,pKd,Binder
1,below the threshold,B1
2,below the threshold,B2

# Molecular target: T11, PCLO, Q9Y6V0
# Test: holdup assay
# Parameters: key: below the threshold = too weak to quantify, mostly under pKd 3.1 to 4
# Conditions: plain residues with an end cap or a label only (N-terminal biotin on a linker: ttds)
row,pKd,Binder
1,below the threshold,B1
2,below the threshold,B2

# Molecular target: PTPN3, P26045
# Test: holdup assay
# Parameters: key: below the threshold = too weak to quantify, mostly under pKd 3.1 to 4
# Conditions: plain residues with an end cap or a label only (N-terminal biotin on a linker: ttds)
# Chain of PTPN3, P26045 (P26045 505-587): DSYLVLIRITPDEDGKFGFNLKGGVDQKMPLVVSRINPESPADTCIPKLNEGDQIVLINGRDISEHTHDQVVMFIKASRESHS
row,pKd,Binder
1,4.9,B1
2,4.76,B2

# Molecular target: T12, SHANK1, Q9Y566
# Test: holdup assay
# Parameters: key: below the threshold = too weak to quantify, mostly under pKd 3.1 to 4
# Conditions: plain residues with an end cap or a label only (N-terminal biotin on a linker: ttds)
row,pKd,Binder
1,4.67,B1
2,5.53,B2
